# Measured values as given in paper PMC8113471, “Tanc2-mediated mTOR inhibition balances mTORC1/2 signaling in the developing mouse brain and human neurons” (Nature Communications, 2021).
# Target: mTOR recombinant protein (Origene #TP320457) (UniProt P42345 1-2549)
# Experiment: pull-down; GST-Tanc2 proteins (full-length, N, C) immobilised on glutathione agarose beads, incubated with mTOR recombinant protein (0.5 µg) or Deptor protein in RIPA buffer for 2 h at 4 °C; washed three times; Coomassie staining or immunoblot
# Settings: both partners purified
row,binding result,Binder
1,binds,"GST-Tanc2 (full-length) (natural protein, Tanc2, human, aa 1-1990, subcloned from p3XFlag-Tanc2 (aa 1-1990) into pGEX-6P-1; Kept on the glutathione beads as bait; also called purified Tanc2 protein; pGST-Tanc2 (aa 1-1990); source: E. coli BL-21 (DE3), purified on glutathione sepharose 4B beads) not shown"
2,binds,"GST-Tanc2-C (aa 1359-1990) (domain or fragment, Tanc2, human, aa 1359-1990, in pGEX-6P-1; also called C-terminal region of purified Tanc2; pGST-Tanc2-C; source: E. coli BL-21 (DE3), purified on glutathione sepharose 4B beads) REIQRLLLRVEEECRQMQQPQQPPPPPQPQQQLPEEAEPEPQHEDIYSVQDIFEEEYLEQDVENVSIGLQTEARPSQGLPVIQSPPSSPPHRDSAYISSSPLGSHQVFDFRSSSSVGSPTRQTYQSTSPALSPTHQNSHYRPSPPHTSPAHQGGSYRFSPPPVGGQGKEYPSPPPSPLRRGPQYRASPPAESMSVYRSQSGSPVRYQQETSVSQLPGRPKSPLSKMAQRPYQMPQLPVAVPQQGLRLQPAKAQIVRSNQPSPAVHSSTVIPTGAYGQVAHSMASKYQSSQGDIGVSQSRLVYQGSIGGIVGDGRPVQHVQASLSAGAICQHGGLTKEDLPQRPSSAYRGGVRYSQTPQIGRSQSASYYPVCHSKLDLERSSSQLGSPDVSHLIRRPISVNPNEIKPHPPTPRPLLHSQSVGLRFSPSSNSISSTSNLTPTFRPSSSIQQMEIPLKPAYERSCDELSPVSPTQGGYPSEPTRSRTTPFMGIIDKTARTQQYPHLHQQNRTWAVSSVDTVLSPTSPGNLPQPESFSPPSSISNIAFYNKTNNAQNGHLLEDDYYSPHGMLANGSRGDLLERVSQASSYPDVKVARTLPVAQAYQDNLYRQLSRDSRQGQTSPIKPKRPFVESNV"
3,binds,"GST-Tanc2-N (aa 1-1358) (domain or fragment, Tanc2, human, aa 1-1358, in pGEX-6P-1; also called N-terminal region of purified Tanc2; pGST-Tanc2-N; source: E. coli BL-21 (DE3), purified on glutathione sepharose 4B beads) not shown"
